# Reference: patent publication US20090068637A1
# Numbering of substitutions follows the chain as printed.
# B1: monoclonal antibody 3C8 (antibody, V domains shown)
# VH: QIQLVQSGPELKKPGETVKISCKASGYSFTNYGMNWVKQAPGKGLKWMGWINTYTGEPAYADDFKGRFAFSLETSASTAYLQINNLKNEDTATYFCARWNRDAMDYWGQGTSVTVSS
# VL: DIVLTQSPASLAVSLGQRATISCRASESVDSSDNSLMHWYQQKPGQPPKLLIYRASNLESGIPARFSGSGSRTDFTLTINPVEADDVATYYCQQSIGDPPYTFGGGTKLEIKR
# B2: monoclonal antibody 8H5 (antibody, V domains shown)
# VH: QVQLQQSGAELMKPGASVKISCKATGYTFSNYWIEWIKQRPGHGLEWIGEILPGSDRTNYNGKFKGKATFTADTSSNTAHMQLSSLTSEDSAVYYCANRYDGYYFGLDYWGQGTSVAVSS
# VL: EIVLTQSPAIMSASLGEKVTMSCRASSSVNFVYWYQQRSDASPKLLIYYSSNLAPGVPPRFSGSGSGNSYSLTISGLEGEDAATYYCQHFTSSPYTFGGGTNLEIKR
# B3: monoclonal antibody 4D1 (antibody, V domains shown)
# VH: QVQLQQPGAELVKPGASVNLSCKASGYTFTSYWMHWVKQRPGQGLEWIGEIDPSDSFTTYNQNFKDRATLTVDKSSSTAYMQLRSLTSEDSAVYYCARGGPGDFRYAMDYWGQGTSVTVSS
# VL: DILMTQSPSSMSVSLGDTVSITCHASQGISSNIGWLQQKPGKSFKGLIYHGTNLEDGVPSRFSGSGSGADYSLTISSLESEDFADYYCVQYVQFPYTFGGGTKLEIKR
# B4: monoclonal antibody 10F7 (antibody, V domains shown)
# VH: B3 VH with N19K, F57Y, T59N, N63K, D66G, R67K, R84S, P101T, R105H
# VL: B3 VL
# Columns and labels:
# Assay in all cases: cell-based or functional assay
# [1] = biological target: HA of H5N1 virus strain MIX2 (avian influenza virus H5N1)
# [2] = biological target: HA of H5N1 virus strain GD3 (avian influenza virus H5N1)
# [3] = biological target: HA of H5N1 virus strain YN1 (avian influenza virus H5N1)
# [4] = biological target: HA of H5N1 virus strain GD1 (avian influenza virus H5N1)
# [5] = biological target: HA of H5N1 virus strain VTM3 (avian influenza virus H5N1)
# [6] = biological target: HA of H5N1 virus strain IDN2 (avian influenza virus H5N1)
# [7] = biological target: HA of H5N1 virus strain VNM2.1 (avian influenza virus H5N1)
# [8] = biological target: HA of H5N1 virus strain HN2 (avian influenza virus H5N1)
# [9] = biological target: HA of H5N1 virus strain MB2 (avian influenza virus H5N1)
# [10] = biological target: HA of H5N1 virus strain VTM1.1 (avian influenza virus H5N1)
# [11] = biological target: H5 virus strains (thirty-four strains of H5N1 viruses)
# [12] = biological target: HA of H5N1 virus strain IDN3 (avian influenza virus H5N1)
# [13] = biological target: HA of H5N1 virus strain IDN5 (avian influenza virus H5N1)
# [14] = biological target: non-H5 viruses (14 strains; H1~H13, Chicken NDV)
# [15] = biological target: HA of H5N1 virus strain HN1 (avian influenza virus H5N1)
# [16] = biological target: HA of H5N1 virus strain GD2 (avian influenza virus H5N1)
# [17] = biological target: HA of H5N1 virus strain MIX1 (avian influenza virus H5N1)
# [18] = biological target: HA of H5N1 virus strain VTM4 (avian influenza virus H5N1)
# [19] = biological target: HA of H5N1 virus strain MB1 (avian influenza virus H5N1)
# [20] = biological target: HA of H5N1 virus strain IDN1.1 (avian influenza virus H5N1)
# [21] = biological target: HA of H5N1 virus strain IDN4 (avian influenza virus H5N1)
# [22] = biological target: HA of H5N1 virus strain VTM2 (avian influenza virus H5N1)
# [23] = biological target: HA of H5N1 virus strain MIX3 (avian influenza virus H5N1)
binder,measurement,setting,value
B1,HI titer,[1],800 titer
same,Neutralization titer,[1],< 100 titer
same,HI titer,[2],3200 titer
same,Neutralization titer,[2],200 titer
same,HI titer,[3],1600 titer
same,HI titer,[4],6400 titer
same,Neutralization titer,[4],12800 titer
same,HI titer,[5],6400 titer
same,Neutralization titer,[5],12800 titer
same,HI titer,[6],400 titer
same,Neutralization titer,[6],12800 titer
same,HI titer,[7],< 100 titer
same,Neutralization titer,[7],< 100 titer
same,HI titer,[8],800 titer
same,Neutralization titer,[8],6400 titer
same,HI titer,[9],3200 titer
same,Neutralization titer,[9],12800 titer
same,HI titer,[10],3200 titer
same,Neutralization titer,[10],1600 titer
same,HI assay: positive number/total virus number (of 34 strains),[11],32
same,HI titer,[12],< 100 titer
same,HI titer,[13],6400 titer
same,Neutralization titer,[13],6400 titer
same,HI assay: positive number/total virus number (of 14 strains),[14],0
same,HI titer,[15],3200 titer
same,Neutralization titer,[15],12800 titer
same,HI titer,[16],12800 titer
same,Neutralization titer,[16],12800 titer
same,HI titer,[17],1600 titer
same,Neutralization titer,[17],100 titer
same,HI titer,[18],800 titer
same,Neutralization titer,[18],12800 titer
same,HI titer,[19],400 titer
same,HI titer,[20],3200 titer
same,Neutralization titer,[20],6400 titer
same,HI titer,[21],6400 titer
same,Neutralization titer,[21],12800 titer
same,HI titer,[22],1600 titer
same,Neutralization titer,[22],6400 titer
same,HI titer,[23],400 titer
same,Neutralization titer,[23],200 titer
B2,HI assay: positive number/total virus number (of 14 strains),[14],0
B3,HI titer,[1],12800 titer
same,Neutralization titer,[1],12800 titer
same,HI titer,[2],12800 titer
same,Neutralization titer,[2],12800 titer
same,HI titer,[3],6400 titer
same,Neutralization titer,[3],12800 titer
same,HI titer,[4],12800 titer
same,Neutralization titer,[4],12800 titer
same,HI titer,[5],12800 titer
same,Neutralization titer,[5],12800 titer
same,HI titer,[6],800 titer
same,Neutralization titer,[6],12800 titer
same,HI titer,[7],400 titer
same,Neutralization titer,[7],1600 titer
same,HI titer,[8],3200 titer
same,Neutralization titer,[8],12800 titer
same,HI titer,[9],6400 titer
same,Neutralization titer,[9],12800 titer
same,HI titer,[10],3200 titer
same,Neutralization titer,[10],1600 titer
same,HI assay: positive number/total virus number (of 34 strains),[11],34
same,HI titer,[12],6400 titer
same,Neutralization titer,[12],12800 titer
same,HI titer,[13],12800 titer
same,Neutralization titer,[13],12800 titer
same,HI assay: positive number/total virus number (of 14 strains),[14],0
same,HI titer,[15],12800 titer
same,Neutralization titer,[15],12800 titer
same,HI titer,[16],800 titer
same,Neutralization titer,[16],12800 titer
same,HI titer,[17],12800 titer
same,Neutralization titer,[17],12800 titer
same,HI titer,[18],400 titer
same,Neutralization titer,[18],1600 titer
same,HI titer,[19],3200 titer
same,Neutralization titer,[19],6400 titer
same,HI titer,[20],12800 titer
same,Neutralization titer,[20],12800 titer
same,HI titer,[21],12800 titer
same,Neutralization titer,[21],12800 titer
same,HI titer,[22],3200 titer
same,Neutralization titer,[22],3200 titer
same,HI titer,[23],12800 titer
same,Neutralization titer,[23],12800 titer
B4,HI titer,[1],12800 titer
same,Neutralization titer,[1],12800 titer
same,HI titer,[2],12800 titer
same,Neutralization titer,[2],12800 titer
same,HI titer,[3],3200 titer
same,Neutralization titer,[3],12800 titer
same,HI titer,[4],6400 titer
same,Neutralization titer,[4],12800 titer
same,HI titer,[5],12800 titer
same,Neutralization titer,[5],12800 titer
same,HI titer,[6],1600 titer
same,Neutralization titer,[6],12800 titer
same,HI titer,[7],3200 titer
same,Neutralization titer,[7],200 titer
same,HI titer,[8],1600 titer
same,Neutralization titer,[8],12800 titer
same,HI titer,[9],12800 titer
same,Neutralization titer,[9],12800 titer
same,HI titer,[10],3200 titer
same,Neutralization titer,[10],3200 titer
same,HI assay: positive number/total virus number (of 34 strains),[11],34
same,HI titer,[12],1600 titer
same,Neutralization titer,[12],12800 titer
same,HI titer,[13],6400 titer
same,Neutralization titer,[13],12800 titer
same,HI assay: positive number/total virus number (of 14 strains),[14],0
same,HI titer,[15],12800 titer
same,Neutralization titer,[15],12800 titer
same,HI titer,[16],12800 titer
same,Neutralization titer,[16],12800 titer
same,HI titer,[17],12800 titer
same,Neutralization titer,[17],12800 titer
same,HI titer,[18],400 titer
same,Neutralization titer,[18],200 titer
same,HI titer,[19],6400 titer
same,Neutralization titer,[19],12800 titer
same,HI titer,[20],12800 titer
same,Neutralization titer,[20],12800 titer
same,HI titer,[21],12800 titer
same,Neutralization titer,[21],12800 titer
same,HI titer,[22],1600 titer
same,Neutralization titer,[22],3200 titer
same,HI titer,[23],12800 titer
same,Neutralization titer,[23],12800 titer
